Assay results taken from the supplement of paper PMC5998384.

Assays:
HeLa Kyoto [1] = experiment: thermal stability score vs G1/S (z-score of summed log2 fold changes over temperatures); higher = more thermally stable than in G1/S
HeLa Kyoto [2] = experiment: melting temperature (median over replicates), in situ; higher = more thermally stable
HeLa Kyoto [3] = experiment: solubility change mitosis vs G1/S (difference of NP-40 vs SDS log2 ratios) (log2 ratio difference); higher = more soluble in mitosis
HeLa Kyoto [4] = experiment: solubility in G1/S (NP-40 vs SDS abundance) (log2 ratio); higher = more soluble; conditions: cell cycle stage: G1/S
[5] = cell cycle stage: early G1 (4.5 h after nocodazole release)
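Throughout, for melting temperature (median over replicates), in situ: HeLa Kyoto cells synchronized by double thymidine or nocodazole block, proteins quantified by TMT10plex mass spectrometry, three independent biological replicates.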
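Throughout, for solubility change mitosis vs G1/S (difference of NP-40 vs SDS log2 ratios): synchronized HeLa Kyoto cells (double thymidine block for G1/S, nocodazole release for mitosis), protein amounts in NP-40 versus SDS lysates quantified by mass spectrometry, three biological replicates.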
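Throughout, for solubility in G1/S (NP-40 vs SDS abundance): HeLa Kyoto cells arrested at G1/S by double thymidine block, proteins quantified by TMT10plex mass spectrometry in mild NP-40 versus SDS extracts, three biological replicates.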
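Throughout, for thermal stability score vs G1/S (z-score of summed log2 fold changes over temperatures): synchronized HeLa Kyoto cells, proteins quantified by TMT10plex mass spectrometry, three biological replicates, mitosis taken 0.5 h after nocodazole release, G1/S directly after double thymidine block.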

CDK16, sequence (chain, as listed by the source): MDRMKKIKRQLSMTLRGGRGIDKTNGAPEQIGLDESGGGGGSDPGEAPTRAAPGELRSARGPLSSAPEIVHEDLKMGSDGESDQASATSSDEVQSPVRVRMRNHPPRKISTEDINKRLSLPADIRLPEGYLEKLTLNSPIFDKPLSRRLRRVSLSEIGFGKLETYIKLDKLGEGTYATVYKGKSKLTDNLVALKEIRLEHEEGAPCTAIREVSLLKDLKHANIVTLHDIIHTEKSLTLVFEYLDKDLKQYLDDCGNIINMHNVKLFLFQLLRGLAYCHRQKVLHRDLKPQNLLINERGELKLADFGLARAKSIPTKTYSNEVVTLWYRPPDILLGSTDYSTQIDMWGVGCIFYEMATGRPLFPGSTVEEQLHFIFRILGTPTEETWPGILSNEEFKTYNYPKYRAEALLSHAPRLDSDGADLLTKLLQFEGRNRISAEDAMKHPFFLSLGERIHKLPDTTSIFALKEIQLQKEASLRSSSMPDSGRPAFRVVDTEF

Substance	thermal stability score (HeLa Kyoto [1]; [5])	thermal stability score (HeLa Kyoto [1]; cell cycle stage: mitosis)	melting temperature (HeLa Kyoto [2]; cell cycle stage: G1/S) [°C]	melting temperature (HeLa Kyoto [2]; cell cycle stage: mitosis) [°C]	solubility change mitosis (log2) (HeLa Kyoto [3])	solubility in G1/S (log2) (HeLa Kyoto [4])
MALSDEPAAGGPEEEAEDETLAFGAALEAFGESAETRALLGRLREVHGGGAEREVALERFRVIMDKYQEQPHLLDPHLEWMMNLLLDIVQDQTSPASLVHLAFKFLYIITKVRGYKTFLRLFPHEVADVEPVLDLVTIQNPKDHEAWETRYMLLLWLSVTCLIPFDFSRLDGNLLTQPGQARMSIMDRILQIAESYLIVSDKARDAAAVLVSRFITRPDVKQSKMAEFLDWSLCNLARSSFQTMQGVITMDGTLQALAQIFKHGKREDCLPYAATVLRCLDGCRLPESNQTLLRKLGVKLVQRLGLTFLKPKVAAWRYQRGCRSLAANLQLLTQGQSEQKPLILTEDDDEDDDVPEGVERVIEQLLVGLKDKDTVVRWSAAKGIGRMAGRLPRALADDVVGSVLDCFSFQETDKAWHGGCLALAELGRRGLLLPSRLVDVVAVILKALTYDEKRGACSVGTNVRDAACYVCWAFARAYEPQELKPFVTAISSALVIAAVFDRDINCRRAASAAFQENVGRQGTFPHGIDILTTADYFAVGNRSNCFLVISVFIAGFPEYTQPMIDHLVTMKISHWDGVIRELAARALHNLAQQAPEFSATQVFPRLLSMTLSPDLHMRHGSILACAEVAYALYKLAAQENRPVTDHLDEQAVQGLKQIHQQLYDRQLYRGLGGQLMRQAVCVLIEKLSLSKMPFRGDTVIDGWQWLINDTLRHLHLISSHSRQQMKDAAVSALAALCSEYYMKEPGEADPAIQEELITQYLAELRNPEEMTRCGFSLALGALPGFLLKGRLQQVLTGLRAVTHTSPEDVSFAESRRDGLKAIARICQTVGVKAGAPDEAVCGENVSQIYCALLGCMDDYTTDSRGDVGTWVRKAAMTSLMDLTLLLARSQPELIEAHTCERIMCCVAQQASEKIDRFRAHAASVFLTLLHFDSPPIPHVPHRGELEKLFPRSDVASVNWSAPSQAFPRITQLLGLPTYRYHVLLGLVVSLGGLTESTIRHSTQSLFEYMKGIQSDPQALGSFSGTLLQIFEDNLLNERVSVPLLKTLDHVLTHGCFDIFTTEEDHPFAVKLLALCKKEIKNSKDIQKLLSGIAVFCEMVQFPGDVRRQALLQLCLLLCHRFPLIRKTTASQVYETLLTYSDVVGADVLDEVVTVLSDTAWDAELAVVREQRNRLCDLLGVPRPQLVPQPGAC [TBCD]	-0.177	0.431	50	50.2	-0.154	-0.194
MAAYLQWRRFVFFDKELVKEPLSNDGAAPGATPASGSAASKFLCLPPGITVCDSGRGSLVFGDMEGQIWFLPRSLQLTGFQAYKLRVTHLYQLKQHNILASVGEDEEGINPLVKIWNLEKRDGGNPLCTRIFPAIPGTEPTVVSCLTVHENLNFMAIGFTDGSVTLNKGDITRDRHSKTQILHKGNYPVTGLAFRQAGKTTHLFVVTTENVQSYIVSGKDYPRVELDTHGCGLRCSALSDPSQDLQFIVAGDECVYLYQPDERGPCFAFEGHKLIAHWFRGYLIIVSRDRKVSPKSEFTSRDSQSSDKQILNIYDLCNKFIAYSTVFEDVVDVLAEWGSLYVLTRDGRVHALQEKDTQTKLEMLFKKNLFEMAINLAKSQHLDSDGLAQIFMQYGDHLYSKGNHDGAVQQYIRTIGKLEPSYVIRKFLDAQRIHNLTAYLQTLHRQSLANADHTTLLLNCYTKLKDSSKLEEFIKKKSESEVHFDVETAIKVLRQAGYYSHALYLAENHAHHEWYLKIQLEDIKNYQEALRYIGKLPFEQAESNMKRYGKILMHHIPEQTTQLLKGLCTDYRPSLEGRSDREAPGCRANSEEFIPIFANNPRELKAFLEHMSEVQPDSPQGIYDTLLELRLQNWAHEKDPQVKEKLHAEAISLLKSGRFCDVFDKALVLCQMHDFQDGVLYLYEQGKLFQQIMHYHMQHEQYRQVISVCERHGEQDPSLWEQALSYFARKEEDCKEYVAAVLKHIENKNLMPPLLVVQTLAHNSTATLSVIRDYLVQKLQKQSQQIAQDELRVRRYREETTRIRQEIQELKASPKIFQKTKCSICNSALELPSVHFLCGHSFHQHCFESYSESDADCPTCLPENRKVMDMIRAQEQKRDLHDQFQHQLRCSNDSFSVIADYFGRGVFNKLTLLTDPPTARLTSSLEAGLQRDLLMHSRRGT [VPS11]	-0.498	-0.231	51.3	49.9	-0.106	-0.142
MMP15	-0.0989	-0.65	54.4	55.3	-0.0164	-0.181
MDPAARVVRALWPGGCALAWRLGGRPQPLLPTQSRAGFAGAAGGPSPVAAARKGSPRLLGAAALALGGALGLYHTARWHLRAQDLHAERSAAQLSLSSRLQLTLYQYKTCPFCSKVRAFLDFHALPYQVVEVNPVRRAEIKFSSYRKVPILVAQEGESSQQLNDSSVIISALKTYLVSGQPLEEIITYYPAMKAVNEQGKEVTEFGNKYWLMLNEKEAQQVYGGKEARTEEMKWRQWADDWLVHLISPNVYRTPTEALASFDYIVREGKFGAVEGAVAKYMGAAAMYLISKRLKSRHRLQDNVREDLYEAADKWVAAVGKDRPFMGGQKPNLADLAVYGVLRVMEGLDAFDDLMQHTHIQPWYLRVERAITEASPAH [PTGES2]	1.5	0.796	54.6	54.9	-0.0374	0.0509
MAASSISSPWGKHVFKAILMVLVALILLHSALAQSRRDFAPPGQQKREAPVDVLTQIGRSVRGTLDAWIGPETMHLVSESSSQVLWAISSAISVAFFALSGIAAQLLNALGLAGDYLAQGLKLSPGQVQTFLLWGAGALVVYWLLSLLLGLVLALLGRILWGLKLVIFLAGFVALMRSVPDPSTRALLLLALLILYALLSRLTGSRASGAQLEAKVRGLERQVEELRWRQRRAAKGARSVEEE [TMEM109]	-3.9	-4.03	54.6	53.8	-0.14	-0.0444
MAPKGSSKQQSEEDLLLQDFSRNLSAKSSALFFGNAFIVSAIPIWLYWRIWHMDLIQSAVLYSVMTLVSTYLVAFAYKNVKFVLKHKVAQKREDAVSKEVTRKLSEADNRKMSRKEKDERILWKKNEVADYEATTFSIFYNNTLFLVVVIVASFFILKNFNPTVNYILSISASSGLIALLSTGSK [SSR3]	1.59	-0.0489	57.8	57.2	0.126	-0.131
MASLLAKDAYLQSLAKKICSHSAPEQQARTRAGKTQGSETAGPPKKKRKKTQKKFRKREEKAAEHKAKSLGEKSPAASGARRPEAAKEEAAWASSSAGNPADGLATEPESVFALDVLRQRLHEKIQEARGQGSAKELSPAALEKRRRRKQERDRKKRKRKELRAKEKARKAEEATEAQEVVEATPEGACTEPREPPGLIFNKVEVSEDEPASKAQRRKEKRQRVKGNLTPLTGRNYRQLLERLQARQSRLDELRGQDEGKAQELEAKMKWTNLLYKAEGVKIRDDERLLQEALKRKEKRRAQRQRRWEKRTAGVVEKMQQRQDRRRQNLRRKKAARAERRLLRARKKGRILPQDLERAGLV [SURF6]	-2.48	-6.87	56.5	54.5	1.25	-1.46
METGAAELYDQALLGILQHVGNVQDFLRVLFGFLYRKTDFYRLLRHPSDRMGFPPGAAQALVLQVFKTFDHMARQDDEKRRQELEEKIRRKEEEEAKTVSAAAAEKEPVPVPVQEIEIDSTTELDGHQEVEKVQPPGPVKEMAHGSQEAEAPGAVAGAAEVPREPPILPRIQEQFQKNPDSYNGAVRENYTWSQDYTDLEVRVPVPKHVVKGKQVSVALSSSSIRVAMLEENGERVLMEGKLTHKINTESSLWSLEPGKCVLVNLSKVGEYWWNAILEGEEPIDIDKINKERSMATVDEEEQAVLDRLTFDYHQKLQGKPQSHELKVHEMLKKGWDAEGSPFRGQRFDPAMFNISPGAVQF [NUDCD3]	0.442	0.3	51	50.9	-0.097	0.212
MPRVKAAQAGRQSSAKRHLAEQFAVGEIITDMAKKEWKVGLPIGQGGFGCIYLADMNSSESVGSDAPCVVKVEPSDNGPLFTELKFYQRAAKPEQIQKWIRTRKLKYLGVPKYWGSGLHDKNGKSYRFMIMDRFGSDLQKIYEANAKRFSRKTVLQLSLRILDILEYIHEHEYVHGDIKASNLLLNYKNPDQVYLVDYGLAYRYCPEGVHKEYKEDPKRCHDGTIEFTSIDAHNGVAPSRRGDLEILGYCMIQWLTGHLPWEDNLKDPKYVRDSKIRYRENIASLMDKCFPEKNKPGEIAKYMETVKLLDYTEKPLYENLRDILLQGLKAIGSKDDGKLDLSVVENGGLKAKTITKKRKKEIEESKEPGVEDTEWSNTQTEEAIQTRSRTRKRVQK [VRK1]	3.16	3.91	48.2	49.8	-0.0401	-0.215
MLAVHFDKPGGPENLYVKEVAKPSPGEGEVLLKVAASALNRADLMQRQGQYDPPPGASNILGLEASGHVAELGPGCQGHWKIGDTAMALLPGGGQAQYVTVPEGLLMPIPEGLTLTQAAAIPEAWLTAFQLLHLVGNVQAGDYVLIHAGLSGVGTAAIQLTRMAGAIPLVTAGSQKKLQMAEKLGAAAGFNYKKEDFSEATLKFTKGAGVNLILDCIGGSYWEKNVNCLALDGRWVLYGLMGGGDINGPLFSKLLFKRGSLITSLLRSRDNKYKQMLVNAFTEQILPHFSTEGPQRLLPVLDRIYPVTEIQEAHKYMEANKNIGKIVLELPQ [TP53I3]	-2.64	-1.51	58.7	57.3	-0.199	0.373
MVRTKTWTLKKHFVGYPTNSDFELKTAELPPLKNGEVLLEALFLTVDPYMRVAAKRLKEGDTMMGQQVAKVVESKNVALPKGTIVLASPGWTTHSISDGKDLEKLLTEWPDTIPLSLALGTVGMPGLTAYFGLLEICGVKGGETVMVNAAAGAVGSVVGQIAKLKGCKVVGAVGSDEKVAYLQKLGFDVVFNYKTVESLEETLKKASPDGYDCYFDNVGGEFSNTVIGQMKKFGRIAICGAISTYNRTGPLPPGPPPEIVIYQELRMEAFVVYRWQGDARQKALKDLLKWVLEGKIQYKEYIIEGFENMPAAFMGMLKGDNLGKTIVKA [PTGR1]	0.13	-1.48	53.2	53.5	-0.225	0.248
MMLSTEGREGFVVKVRGLPWSCSADEVMRFFSDCKIQNGTSGIRFIYTREGRPSGEAFVELESEEEVKLALKKDRETMGHRYVEVFKSNSVEMDWVLKHTGPNSPDTANDGFVRLRGLPFGCSKEEIVQFFSGLEIVPNGMTLPVDFQGRSTGEAFVQFASQEIAEKALKKHKERIGHRYIEIFKSSRAEVRTHYDPPRKLMAMQRPGPYDRPGAGRGYNSIGRGAGFERMRRGAYGGGYGGYDDYGGYNDGYGFGSDRFGRDLNYCFSGMSDHRYGDGGSSFQSTTGHCVHMRGLPYRATENDIYNFFSPLNPMRVHIEIGPDGRVTGEADVEFATHEDAVAAMAKDKANMQHRYVELFLNSTAGTSGGAYDHSYVELFLNSTAGASGGAYGSQMMGGMGLSNQSSYGGPASQQLSGGYGGGYGGQSSMSGYDQVLQENSSDYQSNLA [HNRNPH2]	1.83	2.38	45	45.2	-0.0078	-0.272
CDK16	-0.616	0.901	50.7	53.1	-0.105	0.548
MDQCVTVERELEKVLHKFSGYGQLCERGLEELIDYTGGLKHEILQSHGQDAELSGTLSLVLTQCCKRIKDTVQKLASDHKDIHSSVSRVGKAIDKNFDSDISSVGIDGCWQADSQRLLNEVMVEHFFRQGMLDVAEELCQESGLSVDPSQKEPFVELNRILEALKVRVLRPALEWAVSNREMLIAQNSSLEFKLHRLYFISLLMGGTTNQREALQYAKNFQPFALNHQKDIQVLMGSLVYLRQGIENSPYVHLLDANQWADICDIFTRDACALLGLSVESPLSVSFSAGCVALPALINIKAVIEQRQCTGVWNQKDELPIEVDLGKKCWYHSIFACPILRQQTTDNNPPMKLVCGHIISRDALNKMFNGSKLKCPYCPMEQSPGDAKQIFF [RMND5A]	0.294	0.672	51.1	–	-0.047	0.298
DNAJB6	0.898	1.65	52.8	49.8	0.0684	-0.0238
